To fix the notation:
B1: CPEB3 Ribozyme (parent)
chain: GGGGGCCACAGCAGAAGCGUUCACGUCGCGGCCCCUGUCAGAUUCUGGUGAAUCUGCGAAUUCUGCUGU

In this data set the parent is B1. The data set is described as follows: self-cleavage, relative activity (ratio to wild type); higher = more cleavage; co-transcriptional.
Consider GGGGGCCACAGCAGAAGCGUUCACGUCGCGGCCCCUGUUAGAUUCUGGUGAAUCUGCGAAUUCUGGUGU, for which the self-cleavage stood at 0.579. To GGGGGCCACAGCAGAAGCGUUCACGUCGCGGCCCCUGUCGGAUUGUGGUGAAUCUGCGAAUUCUGCUGU belongs 0.942.

As for GGGGGCCACAGCAGAAGCGUUCACGUCGCGGCCCCUGUCGGAUUCUGGUGAAUCUGCGAAUUCUGGUGU, the self-cleavage stood at 0.67. GGGGGCCACAGCAGAAGCGUUCACGUCGCGGCCCCUGUUAGAUUCUGGUGCAUCUGCGAAUUCUGCUGU: the self-cleavage was 0.737.

GGGGGCCACAGCAGAAGCGUUCACGUCGCGGCCCCUGUUAGAUUCUGGUGGAUCUGCGAAUUCUGCUGU: the self-cleavage amounted to 0.892.

Consider GGGGGCCACAGCAGAAGCGUUCACGUCGCGGCCCCUGUUAGAUUCUGGUGAAACUGCGAAUUCUGCUGU, for which the self-cleavage is 0.582. With GGGGGCCACAGCAGAAGCGUUCACGUCGCGGCCCCUGUUAGAUUCUGCUGAAUCUGCGAAUUCUGCUGU, the self-cleavage turned out to be 0.939. As for GGGGGCCACAGCAGAAGCGUUCACGUCGCGGCCCCUGUCCGAUUCUGGUGAAUCUGCGACUUCUGCUGU, the figure is 0.34. Take GGGGGCCACAGCAGAAGCGUUCACGUCGCGGCCCCUGUCCGAUUCUGGUGAAUCUGCGAGUUCUGCUGU: the self-cleavage came to 0.225. To GGGGGCCACAGCAGAAGCGUUCACGUCGCGGCCCCUGUUUGAUUCUGGUGAAUCUGCGAAUUCUGCUGU belongs 0.624.

As to GGGGGCCACAGCAGAAGCGUUCACGUCGCGGCCCCUGUCCGAUUCUGGUGAAUCUGUGAAUUCUGCUGU, the self-cleavage came to 0.287. In the case of GGGGGCCACAGCAGAAGCGUUCACGUCGCGGCCCCUGUCCGAUUCUGGUCAAUCUGCGAAUUCUGCUGU, the self-cleavage amounted to 0.424. To GGGGGCCACAGCAGAAGCGUUCACGUCGCGGCCCCUGUCCGAUUCUGGUAAAUCUGCGAAUUCUGCUGU belongs 0.423; to GGGGGCCACAGCAGAAGCGUUCACGUCGCGGCCCCUGUUAGAUUCUGGUGAAUCUUCGAAUUCUGCUGU, 0.922.

For the variant GGGGGCCACAGCAGAAGCGUUCACGUCGCGGCCCCUGUCCGAUUCUGGUGAUUCUGCGAAUUCUGCUGU, the self-cleavage stood at 0.365.

Consider GGGGGCCACAGCAGAAGCGUUCACGUCGCGGCCCCUGUCCGAUUCUGGUGACUCUGCGAAUUCUGCUGU, for which the self-cleavage was 0.347. To GGGGGCCACAGCAGAAGCGUUCACGUCGCGGCCCCUGUUAGAUUCUUGUGAAUCUGCGAAUUCUGCUGU belongs 0.973; to GGGGGCCACAGCAGAAGCGUUCACGUCGCGGCCCCUGUUAGAUUCUAGUGAAUCUGCGAAUUCUGCUGU, 0.948. As for GGGGGCCACAGCAGAAGCGUUCACGUCGCGGCCCCUGUCGGAUUCUGGUGAAUCUGUGAAUUCUGCUGU, the figure is 0.311; as for GGGGGCCACAGCAGAAGCGUUCACGUCGCGGCCCCUGUCGGAUUCUGGUGAAUCUGAGAAUUCUGCUGU, 0.34.

With GGGGGCCACAGCAGAAGCGUUCACGUCGCGGCCCCUGUCCGAUUCUGGUGAAUCUGCGAAUUCUUCUGU, the self-cleavage was found to be 0.354. As for GGGGGCCACAGCAGAAGCGUUCACGUCGCGGCCCCUGUUAGAUUCUGGUGAAUCUGCGAAGUCUGCUGU, the figure is 0.577.

Regarding GGGGGCCACAGCAGAAGCGUUCACGUCGCGGCCCCUGUUAGAUUCUGGUGAAUCUGCGAAUUCAGCUGU, the self-cleavage was determined as 0.616.

Turning to GGGGGCCACAGCAGAAGCGUUCACGUCGCGGCCCCUGUUAGAUUCUGGUGAAUCUGCGCAUUCUGCUGU, the self-cleavage came to 0.445.

Turning to GGGGGCCACAGCAGAAGCGUUCACGUCGCGGCCCCUGUUAGAUUCUGGUGAAUCUGCGUAUUCUGCUGU, the self-cleavage was 0.527.

With GGGGGCCACAGCAGAAGCGUUCACGUCGCGGCCCCUGUCGGAUUCUGGUGAAUCUGCGUAUUCUGCUGU, the self-cleavage came out at 0.691.

Turning to GGGGGCCACAGCAGAAGCGUUCACGUCGCGGCCCCUGUUAGAUUCUGGUGAAUCUGCGAAUUCUGCUGG, the self-cleavage was determined as 1.05. To GGGGGCCACAGCAGAAGCGUUCACGUCGCGGCCCCUGUUAGAUUCUGGUGAAUCUGCGAAUUCUGCUGA belongs 0.94; to GGGGGCCACAGCAGAAGCGUUCACGUCGCGGCCCCUGUUAGUUUCUGGUGAAUCUGCGAAUUCUGCUGU, 0.736; to GGGGGCCACAGCAGAAGCGUUCACGUCGCGGCCCCUGUUAGAUUCUGGUAAAUCUGCGAAUUCUGCUGU, 0.91. As for GGGGGCCACAGCAGAAGCGUUCACGUCGCGGCCCCUGUUAGAUUCUGGUGAAUCUGGGAAUUCUGCUGU, the figure is 0.403; as for GGGGGCCACAGCAGAAGCGUUCACGUCGCGGCCCCUGUUAGAUUCUGGUGAAUCUGAGAAUUCUGCUGU, 0.34. To GGGGGCCACAGCAGAAGCGUUCACGUCGCGGCCCCUGUUAGAUUCUGGUGAAUCUGCGAAUUCUCCUGU belongs 0.438; to GGGGGCCACAGCAGAAGCGUUCACGUCGCGGCCCCUGUCCGAUUCUGGUGAAUCUGCGAAUUCUGCUGU, 0.702; to GGGGGCCACAGCAGAAGCGUUCACGUCGCGGCCCCUGUCGGAUUCUGGUGAAUCUGCGAAUUCUGCUGU, 0.97. For GGGGGCCACAGCAGAAGCGUUCACGUCGCGGCCCCUGUCCGAUUCUGGUGAAUCUGCGAAUUCUGCUGG, the self-cleavage worked out at 0.875.

Turning to GGGGGCCACAGCAGAAGCGUUCACGUCGCGGCCCCUGUCGGAUUCUGGUGAAUAUGCGAAUUCUGCUGU, the self-cleavage amounted to 0.701.

Consider GGGGGCCACAGCAGAAGCGUUCACGUCGCGGCCCCUGUCGGAUUCUGGUGAAUGUGCGAAUUCUGCUGU, for which the self-cleavage amounted to 0.656. As for GGGGGCCACAGCAGAAGCGUUCACGUCGCGGCCCCUGUCCGAUUCUCGUGAAUCUGCGAAUUCUGCUGU, the figure is 0.794.

Source of the values: the RNAGym collection of RNA variant scans (doi:10.7554/elife.80360).
